According to the DeepSol protein solubility set:

experiment: soluble on expression in E. coli; label from the status in PepcDB or PDB records

Row | Sequence | soluble on expression in E. coli
1 | MAQMTMVQAITDALRIELKNDPNVLIFGEDVGVNGGVFRATEGLQAEFGEDRVFDTPLAESGIGGLAIGLALQGFRPVPEIQFFGFVYEVMDSICGQMARIRYRTGGRYHMPITIRSPFGGGVHTPELHSDSLEGLVAQQPGLKVVIPSTPYDAKGLLISAIRDNDPVIFLEHLKLYRSFRQEVPEGEYTIPIGKADIKREGKDITIIAYGAMVHESLKAAAELEKEGISAEVVDLRTVQPLDIETIIGSVEKTGRAIVVQEAQRQAGIAANVVAEINERAILSLEAPVLRVAAPDTVYPFAQAESVWLPNFKDVIETAKKVMNF | soluble
2 | MAQNLIFITIALVAIVNAGPGEEREKGPGEHKRGGKHHGFPSFFGNVSAEGRKEIAVVFKNENLTLAQADTQIASLAEKYGFAAAYKEHKEKEAVRQAETKKNTTTVINNLSSVATKLSAIRENKDQTRKAQHEAIEALRNENGVEVDTIEFIAKRSRGFGGRHGGRKGGKGGKHFGKKNGDKKRGPHGGDEEGKKTKEAAQ | not soluble
3 | MAQTLAQTKQISQSHTFDVSQSHHKTPDDTNSHSVIYSTQNLDLWYGENHALQNINLDIYENQITAIIGPSGCGKSTYIKTLNRMVELVPSVKTAGKILYRDQDIFDQKYSKEQLRTNVGMVFQQPNPFPKSIYDNITYGPKIHGIKNKKVLDEIVEKSLRGAAIWDELKDRLHTNAYSLSGGQQQRVCIARCLAIEPEVILMDEPTSALDPISTLRVEELVQELKEKYTIIMVTHNMQQAARVSDKTAFFLNGYVNEYDDTDKIFSNPSNKKTEDYISGRFG | not soluble
4 | MAQVLSLENVTLAVEKENSKQAIVKHVSFFINEGEIVALVGESGSGKSVTAQSIIGLNQESIQFDDGNISFESKDLTNLQESEWNQIRGKDISFIFQDPLSSLNPTMKVGRQITEVILQHEKKSKKEAKEIAINLLNDLGIHEAEKRFEQYPHQLSGGMRQRICLAIAFACHPKLVIADEPTTALDVTIQKQIMGLLKERKEKQNTSILLITHDLALVREVADRVVVMYGGRIVEKGTIQEVIGSPKHPYTKSLLQAIPNMDDAEKVLRAIEGTTPSIETLNSFGCPFVNRCPVAIQECIHRFPERTTYSAEHSSHCWQHVLEHDRAKSKEKVNVS | not soluble
5 | MARASSTKARKQRHDPLLKDLDAAQGTLKKINKKKLAQNDAANHDAANEEDGYIDSKASRKILQLAKEQQDEIEGEELAESERNKQFEARFTTMSYDDEDEDEDEDEEAFGEDISDFEPEGDYKEEEEIVEIDEEDAAMFEQYFKKSDDFNSLSGSYNLADKIMASIREKESQVEDMQDDEPLANEQNTSRGNISSGLKSGEGVALPEKVIKAYTTVGSILKTWTHGKLPKLFKVIPSLRNWQDVIYVTNPEEWSPHVVYEATKLFVSNLTAKESQKFINLILLERFRDNIETSEDHSLNYHIYRAVKKSLYKPSAFFKGFLFPLVETGCNVREATIAGSVLAKVSVPALHSSAALSYLLRLPFSPPTTVFIKILLDKKYALPYQTVDDCVYYFMRFRILDDGSNGEDATRVLPVIWHKAFLTFAQRYKNDITQDQRDFLLETVRQRGHKDIGPEIRRELLAGASREFVDPQEANDDLMIDVN | soluble
6 | MARDVKKRGKPAYTNRRNRQKYLKKKDNKKKLSKSAVPIIKYTWDETKTPRENVRDMGIAFNPNDAVPIAEHRKEIIDAEPIDGVSIVVPKPEKKVTGRKKNEKQAAHIISNLEQQVKEEEEARAGQDRKFRLFHRETELCVYMLARHGEDFQAMTRDPKNLWQYTPKQWAKKIRTHKESEMCKFLETA | not soluble
7 | MARFSSVLIYDGECPYCSVAAKALEQVDDIGAISWYDESAQSFLTAQFDEPPFAMVLVDRPAQQVYAGRAAAEELAGRAGLPDLVGSLVRDNYEKIAHVVGLASGRGREPDDVHERYVLADDAQDRFDTLAKDAVDRDIRADALEHHHHHH | soluble
8 | MARKLFTPITIKDMTLKNRIVMSPMCMYSSHEKDGKLTPFHMAHYISRAIGQVGLIIVEASAVNPQGRITDQDLGIWSDEHIEGFAKLTEQVKEQGSKIGIQLAHAGRKAELEGDIFAPSAIAFDEQSATPVEMSAEKVKETVQEFKQAAARAKEAGFDVIEIHAAHGYLIHEFLSPLSNHRTDEYGGSPENRYRFLREIIDEVKQVWDGPLFVRVSASDYTDKGLDIADHIGFAKWMKEQGVDLIDCSSGALVHADINVFPGYQVSFAEKIREQADMATGAVGMITDGSMAEEILQNGRADLIFIGRELLRDPFFARTAAKQLNTEIPAPVQYERGW | soluble
9 | MARLLMIPGPTPVDPEVLLAMARPVISHTSPDFDEIHGETVSMLQKLFRTSGKVFLLPGSGSLGMEFAVRSVAGRGSRALVLKAGYFGGYFERILRSLGASVTVVESPVGRGFTGADVEEALDRAGDVDVVFVQHVETSTSVANPVREIAGVVKKNGARLVVDGIASVGGMDLRLDEWGVDVALTGSQKALSTPPGLAIVAFSSEYSVELEKREPSGIYFDFLSLSREMESTRNYHITPAVNLVFALNASLKRILGEGLENRFERHRVLARAFTRAMEALGLRLVAEEPFRAWTVTAVYLPQGIDWSRFYSVMRKRGVEVAGGLGGLKGKIFRVGHMGEVDANDLIATIAAIERSLVELGYREARLGQGLEAAQKELSSLGL | soluble
10 | MARLTAYERRKFRVRNRIKRTGRLRLSVFRSLKHIYAQIIDDEKGVTLVSASSLALKLKGNKTEVARQVGRALAEKALALGIKQVAFDRGPYKYHGRVKALAEGAREGGLEF | soluble
11 | MARNSTLTNLFLSTKRNMGRLISHIVKADDIDDIVQETFIKTYEADLKQEIKYVRSYMLKTAKNLALNHVARWDNKYNDSLEDFSQPPVQLTSGKVEDDYESKEQFLFFCRATDQLSGSVRKCFILKKVYGLSQKEIASYLNLSESTVEKHIAQGLLKSTKYIKRMNHGHSVKGAKQNHQVHSLQVKKTVLK | not soluble
12 | MARRILVVEAEAPIREMVCFVLEQNGFQPVEAEDYDSAVNQLNEPWPDLILLEWMLPGGSGIQFIKHLKRESMTRDIPVVMLTARGEEEDRVRGLETGADDYITKPFSPKELVARIKAVMRRISPMA | soluble
13 | MARRRRAEVRQLQPDLVYGDVLVTAFINKIMRDGKKNLAARIFYDACKIIQEKTGQEPLKVFKQAVENVKPRMEVRSRRVGGANYQVPMEVSPRRQQSLALRWLVQAANQRPERRAAVRIAHELMDAAEGKGGAVKKKEDVERMAEANRAYAHYRW | soluble
14 | MASASNKQLELWKQYADTKNPAIKEQLIIEYSNIVKYIAGRLSIYFGSNVEYDDLIGYGIFGLIDAIEKFDINKGVKFETYASLRIRGSIIDSIRELDWVPRSLRQKNKELEKVYAEIENELGRSASDKEVADKLGITVDELNKLLNEVNLSSMISLEEFLEQNYEIGVTTAPESRDEKPEGYIEMAELREILADAISKLPEKEKMVITLYYFGEVVK | soluble
15 | MASATARGLRKRLTPQEARLWAGLRELKLRGYHFRRRAPIGCYVVDFVCLSAKLVIDADGEQQAMPAHFAADRQRGVVLRRQGFRVLHFWNSDIDRYFEGVMQTVLDALPPPSVRPNVSRTGHSIHEGAGESG | soluble
16 | MASCVLTHSPPPPMTAKSPPIPAPSPEQIGLRIRALRKRQKRTLAWLSAQCGLDKGFLSRLERGEKSASVGTLHTVAGALGSSLSALLGEADPQTEIQIVRAADRHRMTTAPGPGEHIYEAITLGSSHSGLSVMVVEVGTHGAHTEAHHGGDELIFVLDGRIRVHFGGHTVLLERDDSVRFPGYLPHSLSAEGRKLARALVVIASG | not soluble
17 | MASESAVKDSQPSLDLASATSGDKIVTAQENGKAPDGQTVAGEVMGPQRPRSNSGRELTDEEILASVMIKNLDTGEEIPLSLAEEKLPTGINPLTLHIMRRTKEYVSNDAAQSDDEEKLQSQPTDTDGGRLKQKTTQLKKFLGKSVKRAKHLAEEYGERAINKVKSVRDEVFHTDQDDPSSSDDEGMPYTRPVKFKAAHGFKGPYDFDQIKVVQDLSGEHMGAVWTMKFSHCGRLLASAGQDNVVRIWALKNAFDYFNNMRMKYNTEGRVSPSPSQESLSSSKSDTDTGVCSGTDEDPDDKNAPFRQRPFCKYKGHTADLLDLSWSKNYFLLSSSMDKTVRLWHISRRECLCCFQHIDFVTAIAFHPRDDRYFLSGSLDGKLRLWNIPDKKVALWNEVDGQTKLITAANFCQNGKYAVIGTYDGRCIFYDTEHLKYHTQIHVRSTRGRNKVGRKITGIEPLPGENKILVTSNDSRIRLYDLRDLSLSMKYKGYVNSSSQIKASFSHDFTYLVSGSEDKYVYIWSTYHDLSKFTSVRRDRNDFWEGIKAHNAVVTSAIFAPNPSLMLSLDVQSEKSEGNEKSEDAEVLDATPSGIMKTDNTEVLLSADFTGAIKVFVNKRKNVS | not soluble
18 | MASIGRAIVRVPKNVKKGQIFKVQMVIIHPMETGLRKDPKTGKKIPAHYITHVDLYFNGKLVTKINTSPGISKNPYFAIKMKAEEAGTLKIVYEDNKGGKWEKEVKINVA | not soluble
19 | MASLSDQSGSIGSEQTRPSGAIPVESLPPQALEQLIASLQQEVEQLADALQQLNFANQRWTLCKQSIEAFAEETTRVDLPGAQSRATDAISSTASAKPETSVEVNQNQRLLVPLSRSLYVLGRVINPERCLIDIGTGYHVERKLADAAEFFDRRLKHVRGSMRQLTLKIDQNQQQMQTIREILVRKLAGAQQAAEHT | not soluble
20 | MASMTGGQQMGRDLQVTLYGTIKAGVEVSRVKDAGTYKAQGGKSKTATQIADFGSKIGFKGQEDLGNGMKAIWQLEQKASIAGTNSGWGNRQSFIGLKGGFGTVRAGNLNTVLKDSGDNVNAWESGSNTEDVLGLGTIGRVESREISVRYDSPVFAGFSGSVQYVPRDNANDVDKYKHTKSSRESYHAGLKYENAGFFGQYAGSFAKYADLNTDAERVAVNTANAHPVKDYQVHRVVAGYDANDLYVSVAGQYEAAKNNEVGSIKGKKHEQTQVAATAAYRFGNVTPRVSYAHGFKAKVNGVKDANYQYDQVIVGADYDFSKRTSALVSAGWLKQGKGAGKVEQTASMVGLRHKF | soluble
21 | MASNPNDLPDFPEHEYAATQQVGEGVINGDLYLTSASGAIQKGTNTKVTLEPATSYMKAYYAKFGNLDAAKRDPDVQPPVLDPRRATYVREATTDQNGRFDFDHIPNGTYYISSELTWSAQSDGKTITEGGTVTKLVTVSGSQPQKVLLTR | soluble
22 | MASNQQDVVKELNQQVANWTVAYTKLHNFHWYVKGPNFFSLHVKFEELYNEASQYVDELAERILAVGGNPVGTLTECLEQSIVKEAAKGYSAEQMVEELSQDFTNISKQLENAIEIAGNAGDDVSEDMFIGMQTSVDKHNWMFKSYLSLEHHHHHH | soluble
23 | MASPISHSSHENASGKYGYGDESQHGKNFHQKAEHSGHEAKEKGYSQDGKAADHDALHKDAAEHKQNKEAHQSGSGNKYVDDASNYNKDVKTKTFGFFDYRYVQPQYHMEQYHTDEKHANKYAGDEHNAGQQHKDNGGYHADGHQGYDKAQEKHGASHTNYGNEDAGHKSKYDDNEGKYGDHTDGYYNKGYDNYGQGHDSESYQPSYYQPKPKYYGGHQSHYQPSARHSSPYQGDQYYGYEAPHY | not soluble
24 | MASRRELKKNVNYIAGELFTECLINSMFIPGTDKAKADELMAEVLRMQDEFVSRISHTEPGNVKGFYKKFRVDFNAKVNEIIEAIGKLN | not soluble
